Experimental findings from paper PMC10989928, “Cell division factor ZapE regulates Pseudomonas aeruginosa biofilm formation by impacting the pqs quorum sensing system” (mLife, 2023) are described below.

The experiment concerns the target T1, MBP-PqsH, recombinant (P. aeruginosa PAO1, UniProt Q9I0Q0 1-382).
T1 construct: also called PqsH protein; source: E. coli BL21 (DE3), pMAL-C5x, purified (Dextrin Beads 6FF, Mono Q ion exchange, Superdex 200 gel filtration)
T1 sequence: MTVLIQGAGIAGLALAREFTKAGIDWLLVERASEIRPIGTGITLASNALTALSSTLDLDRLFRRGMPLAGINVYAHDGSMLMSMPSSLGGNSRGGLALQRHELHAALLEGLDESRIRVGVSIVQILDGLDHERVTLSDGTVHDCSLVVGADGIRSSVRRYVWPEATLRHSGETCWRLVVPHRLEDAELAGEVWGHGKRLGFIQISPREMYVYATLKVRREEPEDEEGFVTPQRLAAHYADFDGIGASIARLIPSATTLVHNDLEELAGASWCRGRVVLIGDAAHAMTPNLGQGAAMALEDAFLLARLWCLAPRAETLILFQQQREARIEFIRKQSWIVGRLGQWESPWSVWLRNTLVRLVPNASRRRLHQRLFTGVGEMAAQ
As to the kind of experiment: SPR. The conditions noted are these: both partners purified.

B1: HIS-ZapE, recombinant (natural protein, P. aeruginosa PAO1, UniProt Q9HVX7 1-364, looked up)
chain: MTPLERYQADLQRPDFFHDAAQANAVKHLQRLYDDLVAADHAKPGLFGKLLGRKSGGPVKGLYFWGGVGRGKTYLVDTFFESLPFEQKVRTHFHRFMKRVHEELKTLKGEKNPLTIIGKRFADEARVICFDEFFVSDITDAMILATLLEELFKNGVSLVATSNIVPDGLYKDGLQRARFLPAIALLKEHTEIVNVDSGVDYRLRALEQAELFHWPLSEQVEEEMARSFKALTPDCAKAQRDEALMIENREIRARLTCDDVAWFEFRELCDGPRSQNDYIELAKIFHAVLISNVEQMGVTKDDMARRFINLVDEFYDRSVKLIISAEVELKDLYSGGRLEFEFQRTLSRLLEMQSHEYLTRPHRP
notes: also called PA4438; ZapE protein; source: E. coli BL21 (DE3), pET28a, purified (Ni NTA beads, Mono Q ion exchange, Superdex 200 gel filtration)
As for B1, the binding result is “binds”.
